Reference: patent US20250218531A1
“And” between values parts separate entries of the source, which are not always exact repeats. Equal entries are not always repeated. Where two headings read alike, the source gives them in different places.

Key:
[1] = target: human vascular endothelial growth factor A (VEGF-A) (human) (UniProt P15692)
[2] = target: human epidermal growth factor receptor 2 (HER2) extracellular domain (human) (UniProt P04626); assay: SPR
[3] = target: human vascular endothelial growth factor A (VEGF-A) (human) (UniProt P15692); assay: SPR
[4] = target: human epidermal growth factor receptor 2 (HER2) extracellular domain (human) (UniProt P04626); assay: not stated (FIG. 6A)
[5] = target: human vascular endothelial growth factor A (VEGF-A) (human) (UniProt P15692); assay: not stated (FIG. 6A)
[6] = target: human vascular endothelial growth factor A (VEGF-A) (human) (UniProt P15692); assay: SPR, table row 15
[7] = target: human vascular endothelial growth factor A (VEGF-A) (human) (UniProt P15692); assay: SPR, table row 17
[8] = target: human vascular endothelial growth factor A (VEGF-A) (human) (UniProt P15692); assay: SPR, table row 18
[9] = target: human epidermal growth factor receptor 2 (HER2) extracellular domain (human) (UniProt P04626); assay: SPR, table row 12
[10] = target: human vascular endothelial growth factor A (VEGF-A) (human) (UniProt P15692); assay: SPR, table row 12
[11] = target: human epidermal growth factor receptor 2 (HER2) extracellular domain (human) (UniProt P04626); assay: SPR, table row 20
[12] = target: human vascular endothelial growth factor A (VEGF-A) (human) (UniProt P15692); assay: SPR, table row 20

Chain of human vascular endothelial growth factor A (VEGF-A) (human) (P15692 220-313 limits assumed): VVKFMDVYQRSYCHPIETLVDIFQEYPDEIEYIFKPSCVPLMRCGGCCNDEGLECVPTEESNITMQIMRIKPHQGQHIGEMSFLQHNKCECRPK

Kd [1]: 24.8 nM and 26.2 nM and 31.1 nM
koff [1]: 0.00027 s⁻¹ and 0.000282 s⁻¹ and 0.000342 s⁻¹
kon [1]: 10900 M⁻¹ s⁻¹ and 10800 M⁻¹ s⁻¹ and 11000 M⁻¹ s⁻¹
Kd [2]: 32.9 nM
Kd [3]: 23.5 nM
Kd [4]: 26 nM
Kd [5]: 300 nM
Kd [6]: 21.8 nM
koff [6]: 0.000254 s⁻¹
kon [6]: 11700 M⁻¹ s⁻¹
Kd [7]: 22.7 nM
koff [7]: 0.00028 s⁻¹
kon [7]: 12300 M⁻¹ s⁻¹
Kd [8]: 23.2 nM
koff [8]: 0.00025 s⁻¹
kon [8]: 10800 M⁻¹ s⁻¹
Kd [9]: 3.22 nM
koff [9]: 6.2e-05 s⁻¹
kon [9]: 19300 M⁻¹ s⁻¹
Kd [10]: 18.4 nM
koff [10]: 0.000211 s⁻¹
kon [10]: 11500 M⁻¹ s⁻¹
Kd [11]: 10.3 nM
koff [11]: 9.72e-05 s⁻¹
kon [11]: 9470 M⁻¹ s⁻¹
Kd [12]: 24.2 nM
koff [12]: 0.00026 s⁻¹
kon [12]: 10800 M⁻¹ s⁻¹
Substance: Trastuzumab bH1 (antibody)
